Square brackets hold non-standard residues; d marks the D form. Ends that are not written are not given here. Aib = CC(C)(N)C(=O)O
T1: human glucose-dependent insulinotropic peptide receptor (human, UniProt P48546)
T1 sequence: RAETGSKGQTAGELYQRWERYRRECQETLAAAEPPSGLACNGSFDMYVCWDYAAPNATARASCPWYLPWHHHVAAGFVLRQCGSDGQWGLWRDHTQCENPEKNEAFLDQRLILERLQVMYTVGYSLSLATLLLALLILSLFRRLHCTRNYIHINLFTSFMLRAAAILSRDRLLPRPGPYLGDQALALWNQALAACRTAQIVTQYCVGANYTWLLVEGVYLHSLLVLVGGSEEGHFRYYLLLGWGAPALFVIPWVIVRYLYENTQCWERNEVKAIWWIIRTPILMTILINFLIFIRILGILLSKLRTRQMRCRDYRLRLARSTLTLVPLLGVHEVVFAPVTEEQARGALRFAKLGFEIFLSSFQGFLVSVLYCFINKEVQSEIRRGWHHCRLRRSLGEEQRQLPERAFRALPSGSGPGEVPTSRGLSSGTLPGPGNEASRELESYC

B1: Compound No. 73 (peptide)
peptide: Y[Aib]EGTFTSDYSIYLEEEAAQEFVNWLLAGGPSSGAPPPS-NH2
modifications: N-terminus assumed
SMILES: CC[C@H](C)[C@H](NC(=O)[C@H](CO)NC(=O)[C@H](Cc1ccc(O)cc1)NC(=O)[C@H](CC(=O)O)NC(=O)[C@H](CO)NC(=O)[C@@H](NC(=O)[C@H](Cc1ccccc1)NC(=O)[C@@H](NC(=O)CNC(=O)[C@H](CCC(=O)O)NC(=O)C(C)(C)NC(=O)[C@@H](N)Cc1ccc(O)cc1)[C@@H](C)O)[C@@H](C)O)C(=O)N[C@@H](Cc1ccc(O)cc1)C(=O)N[C@@H](CC(C)C)C(=O)N[C@@H](CCC(=O)O)C(=O)N[C@@H](CCC(=O)O)C(=O)N[C@@H](CCC(=O)O)C(=O)N[C@@H](C)C(=O)N[C@@H](C)C(=O)N[C@@H](CCC(N)=O)C(=O)N[C@@H](CCC(=O)O)C(=O)N[C@@H](Cc1ccccc1)C(=O)N[C@H](C(=O)N[C@@H](CC(N)=O)C(=O)N[C@@H](Cc1c[nH]c2ccccc12)C(=O)N[C@@H](CC(C)C)C(=O)N[C@@H](CC(C)C)C(=O)N[C@@H](C)C(=O)NCC(=O)NCC(=O)N1CCC[C@H]1C(=O)N[C@@H](CO)C(=O)N[C@@H](CO)C(=O)NCC(=O)N[C@@H](C)C(=O)N1CCC[C@H]1C(=O)N1CCC[C@H]1C(=O)N1CCC[C@H]1C(=O)N[C@@H](CO)C(N)=O)C(C)C
B2: Compound No. 68 (peptide)
peptide: Y[Aib]EGTFTSDVSIYLEKIAAQEFVNWLLAGGPSSGAPPPS-NH2
modifications: N-terminus assumed
SMILES: CC[C@H](C)[C@H](NC(=O)[C@H](CCCCN)NC(=O)[C@H](CCC(=O)O)NC(=O)[C@H](CC(C)C)NC(=O)[C@H](Cc1ccc(O)cc1)NC(=O)[C@@H](NC(=O)[C@H](CO)NC(=O)[C@@H](NC(=O)[C@H](CC(=O)O)NC(=O)[C@H](CO)NC(=O)[C@@H](NC(=O)[C@H](Cc1ccccc1)NC(=O)[C@@H](NC(=O)CNC(=O)[C@H](CCC(=O)O)NC(=O)C(C)(C)NC(=O)[C@@H](N)Cc1ccc(O)cc1)[C@@H](C)O)[C@@H](C)O)C(C)C)[C@@H](C)CC)C(=O)N[C@@H](C)C(=O)N[C@@H](C)C(=O)N[C@@H](CCC(N)=O)C(=O)N[C@@H](CCC(=O)O)C(=O)N[C@@H](Cc1ccccc1)C(=O)N[C@H](C(=O)N[C@@H](CC(N)=O)C(=O)N[C@@H](Cc1c[nH]c2ccccc12)C(=O)N[C@@H](CC(C)C)C(=O)N[C@@H](CC(C)C)C(=O)N[C@@H](C)C(=O)NCC(=O)NCC(=O)N1CCC[C@H]1C(=O)N[C@@H](CO)C(=O)N[C@@H](CO)C(=O)NCC(=O)N[C@@H](C)C(=O)N1CCC[C@H]1C(=O)N1CCC[C@H]1C(=O)N1CCC[C@H]1C(=O)N[C@@H](CO)C(N)=O)C(C)C
B3: Compound No. 79 (peptide)
peptide: Y[Aib]EGTFTSDYSIYLEKIAAQEFVQWLIAGGPSSGAPPPS-NH2
modifications: N-terminus assumed
SMILES: CC[C@H](C)[C@H](NC(=O)[C@H](CCCCN)NC(=O)[C@H](CCC(=O)O)NC(=O)[C@H](CC(C)C)NC(=O)[C@H](Cc1ccc(O)cc1)NC(=O)[C@@H](NC(=O)[C@H](CO)NC(=O)[C@H](Cc1ccc(O)cc1)NC(=O)[C@H](CC(=O)O)NC(=O)[C@H](CO)NC(=O)[C@@H](NC(=O)[C@H](Cc1ccccc1)NC(=O)[C@@H](NC(=O)CNC(=O)[C@H](CCC(=O)O)NC(=O)C(C)(C)NC(=O)[C@@H](N)Cc1ccc(O)cc1)[C@@H](C)O)[C@@H](C)O)[C@@H](C)CC)C(=O)N[C@@H](C)C(=O)N[C@@H](C)C(=O)N[C@@H](CCC(N)=O)C(=O)N[C@@H](CCC(=O)O)C(=O)N[C@@H](Cc1ccccc1)C(=O)N[C@H](C(=O)N[C@@H](CCC(N)=O)C(=O)N[C@@H](Cc1c[nH]c2ccccc12)C(=O)N[C@@H](CC(C)C)C(=O)N[C@H](C(=O)N[C@@H](C)C(=O)NCC(=O)NCC(=O)N1CCC[C@H]1C(=O)N[C@@H](CO)C(=O)N[C@@H](CO)C(=O)NCC(=O)N[C@@H](C)C(=O)N1CCC[C@H]1C(=O)N1CCC[C@H]1C(=O)N1CCC[C@H]1C(=O)N[C@@H](CO)C(N)=O)[C@@H](C)CC)C(C)C
B4: Compound No. 3 (peptide)
peptide: Y[Aib]EGTFTSDVSSYLEEEHQKEFIAWLVRGGPSSGAPPPSK-NH2
modifications: N-terminus assumed
SMILES: CC[C@H](C)[C@H](NC(=O)[C@H](Cc1ccccc1)NC(=O)[C@H](CCC(=O)O)NC(=O)[C@H](CCCCN)NC(=O)[C@H](CCC(N)=O)NC(=O)[C@H](Cc1c[nH]cn1)NC(=O)[C@H](CCC(=O)O)NC(=O)[C@H](CCC(=O)O)NC(=O)[C@H](CCC(=O)O)NC(=O)[C@H](CC(C)C)NC(=O)[C@H](Cc1ccc(O)cc1)NC(=O)[C@H](CO)NC(=O)[C@H](CO)NC(=O)[C@@H](NC(=O)[C@H](CC(=O)O)NC(=O)[C@H](CO)NC(=O)[C@@H](NC(=O)[C@H](Cc1ccccc1)NC(=O)[C@@H](NC(=O)CNC(=O)[C@H](CCC(=O)O)NC(=O)C(C)(C)NC(=O)[C@@H](N)Cc1ccc(O)cc1)[C@@H](C)O)[C@@H](C)O)C(C)C)C(=O)N[C@@H](C)C(=O)N[C@@H](Cc1c[nH]c2ccccc12)C(=O)N[C@@H](CC(C)C)C(=O)N[C@H](C(=O)N[C@@H](CCCNC(=N)N)C(=O)NCC(=O)NCC(=O)N1CCC[C@H]1C(=O)N[C@@H](CO)C(=O)N[C@@H](CO)C(=O)NCC(=O)N[C@@H](C)C(=O)N1CCC[C@H]1C(=O)N1CCC[C@H]1C(=O)N1CCC[C@H]1C(=O)N[C@@H](CO)C(=O)N[C@@H](CCCCN)C(N)=O)C(C)C
B5: Compound No. 67 (peptide)
peptide: Y[Aib]EGTFTSDYSIYLEKEAAKEFIAWLLAGGPSSGAPPPS-NH2
modifications: N-terminus assumed
SMILES: CC[C@H](C)[C@H](NC(=O)[C@H](Cc1ccccc1)NC(=O)[C@H](CCC(=O)O)NC(=O)[C@H](CCCCN)NC(=O)[C@H](C)NC(=O)[C@H](C)NC(=O)[C@H](CCC(=O)O)NC(=O)[C@H](CCCCN)NC(=O)[C@H](CCC(=O)O)NC(=O)[C@H](CC(C)C)NC(=O)[C@H](Cc1ccc(O)cc1)NC(=O)[C@@H](NC(=O)[C@H](CO)NC(=O)[C@H](Cc1ccc(O)cc1)NC(=O)[C@H](CC(=O)O)NC(=O)[C@H](CO)NC(=O)[C@@H](NC(=O)[C@H](Cc1ccccc1)NC(=O)[C@@H](NC(=O)CNC(=O)[C@H](CCC(=O)O)NC(=O)C(C)(C)NC(=O)[C@@H](N)Cc1ccc(O)cc1)[C@@H](C)O)[C@@H](C)O)[C@@H](C)CC)C(=O)N[C@@H](C)C(=O)N[C@@H](Cc1c[nH]c2ccccc12)C(=O)N[C@@H](CC(C)C)C(=O)N[C@@H](CC(C)C)C(=O)N[C@@H](C)C(=O)NCC(=O)NCC(=O)N1CCC[C@H]1C(=O)N[C@@H](CO)C(=O)N[C@@H](CO)C(=O)NCC(=O)N[C@@H](C)C(=O)N1CCC[C@H]1C(=O)N1CCC[C@H]1C(=O)N1CCC[C@H]1C(=O)N[C@@H](CO)C(N)=O
B6: Compound No. 21 (peptide)
peptide: Y[Aib]EGTFTSDYSIYLDKIAAQEFVQWLLAGGPSSGAPPPSK-NH2
modifications: N-terminus assumed
SMILES: CC[C@H](C)[C@H](NC(=O)[C@H](CCCCN)NC(=O)[C@H](CC(=O)O)NC(=O)[C@H](CC(C)C)NC(=O)[C@H](Cc1ccc(O)cc1)NC(=O)[C@@H](NC(=O)[C@H](CO)NC(=O)[C@H](Cc1ccc(O)cc1)NC(=O)[C@H](CC(=O)O)NC(=O)[C@H](CO)NC(=O)[C@@H](NC(=O)[C@H](Cc1ccccc1)NC(=O)[C@@H](NC(=O)CNC(=O)[C@H](CCC(=O)O)NC(=O)C(C)(C)NC(=O)[C@@H](N)Cc1ccc(O)cc1)[C@@H](C)O)[C@@H](C)O)[C@@H](C)CC)C(=O)N[C@@H](C)C(=O)N[C@@H](C)C(=O)N[C@@H](CCC(N)=O)C(=O)N[C@@H](CCC(=O)O)C(=O)N[C@@H](Cc1ccccc1)C(=O)N[C@H](C(=O)N[C@@H](CCC(N)=O)C(=O)N[C@@H](Cc1c[nH]c2ccccc12)C(=O)N[C@@H](CC(C)C)C(=O)N[C@@H](CC(C)C)C(=O)N[C@@H](C)C(=O)NCC(=O)NCC(=O)N1CCC[C@H]1C(=O)N[C@@H](CO)C(=O)N[C@@H](CO)C(=O)NCC(=O)N[C@@H](C)C(=O)N1CCC[C@H]1C(=O)N1CCC[C@H]1C(=O)N1CCC[C@H]1C(=O)N[C@@H](CO)C(=O)N[C@@H](CCCCN)C(N)=O)C(C)C
B7: Compound No. 7 (peptide)
peptide: Y[Aib]EGTFTSDVSIYLEKEAAKEFVNWLLAGGPSSGAPPPSK-NH2
modifications: N-terminus assumed
SMILES: CC[C@H](C)[C@H](NC(=O)[C@H](CO)NC(=O)[C@@H](NC(=O)[C@H](CC(=O)O)NC(=O)[C@H](CO)NC(=O)[C@@H](NC(=O)[C@H](Cc1ccccc1)NC(=O)[C@@H](NC(=O)CNC(=O)[C@H](CCC(=O)O)NC(=O)C(C)(C)NC(=O)[C@@H](N)Cc1ccc(O)cc1)[C@@H](C)O)[C@@H](C)O)C(C)C)C(=O)N[C@@H](Cc1ccc(O)cc1)C(=O)N[C@@H](CC(C)C)C(=O)N[C@@H](CCC(=O)O)C(=O)N[C@@H](CCCCN)C(=O)N[C@@H](CCC(=O)O)C(=O)N[C@@H](C)C(=O)N[C@@H](C)C(=O)N[C@@H](CCCCN)C(=O)N[C@@H](CCC(=O)O)C(=O)N[C@@H](Cc1ccccc1)C(=O)N[C@H](C(=O)N[C@@H](CC(N)=O)C(=O)N[C@@H](Cc1c[nH]c2ccccc12)C(=O)N[C@@H](CC(C)C)C(=O)N[C@@H](CC(C)C)C(=O)N[C@@H](C)C(=O)NCC(=O)NCC(=O)N1CCC[C@H]1C(=O)N[C@@H](CO)C(=O)N[C@@H](CO)C(=O)NCC(=O)N[C@@H](C)C(=O)N1CCC[C@H]1C(=O)N1CCC[C@H]1C(=O)N1CCC[C@H]1C(=O)N[C@@H](CO)C(=O)N[C@@H](CCCCN)C(N)=O)C(C)C

Tests used:
[1] = target: human glucagon-like peptide-1 receptor (human, UniProt P43220); assay: cell-based or functional assay
[2] = target: T1, human glucose-dependent insulinotropic …; assay: cell-based or functional assay

Row | Binder | Activity for human GLP-1R (EC50 nM), cAMP HTRF [1] [nM] | Activity for human GIPR (EC50 nM), cAMP HTRF [2] [nM]
1 | B1 | 0.069 | –
2 | B2 | – | 0.047
3 | B3 | 0.012 | –
4 | B4 | 0.578 | 0.91
5 | B5 | – | 0.017
6 | B6 | 0.043 | –
7 | B7 | 0.016 | –

— patent US20220168396A1, “MULTI-RECEPTOR AGONIST AND MEDICAL USE THEREOF” (published 2022)
